In the supplement of paper PMC9170038:

Tested on: MS2 coat protein
Assay: apparent KD of MS2 coat protein; designed switch direction (-1 OFF switch, 1 ON switch): -1; higher = weaker reporter binding
Method in brief: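 Designed RNA switches sharing common flanks were transcribed on Illumina chips by stalled E. coli RNA polymerase. They were titrated with SNAP-549-labelled MS2 coat protein, from 0.7 or 1.5 nM doubling to 3 µM, in Tris-HCl pH 7.5 buffer with KCl, MgCl2, BSA, DTT, tRNA and Tween-20. Titrations ran without input, with 200 uM small-molecule ligand, or with an oligonucleotide input. The apparent KD of each design is the median over its clusters, after curve-fitting of normalised cluster fluorescence.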

[1] = Eterna round: R95, input ligand: FMN 200 uM
[2] = Eterna round: R95, input ligand: microRNA oligo, concentration not stated
[3] = Eterna round: R95, input ligand: none
[4] = input ligand: microRNA oligo, concentration not stated

Sequence | apparent KD of MS2 coat protein (input ligand: FMN 200 uM) [nM] | apparent KD of MS2 coat protein (input ligand: none) [nM] | apparent KD of MS2 coat protein [1] [nM] | apparent KD of MS2 coat protein [2] [nM] | apparent KD of MS2 coat protein [3] [nM] | apparent KD of MS2 coat protein [4] [nM]
AAAUUAAUGGUAAGGAUAUGAUGCAGGAAACUGCGUCAGAAGGUACAUGAGGAUCACCCAUGUUAAACUAAUUU [Explosion 9 - Jieux - Brourd's mod of Exclusion 4] (Eterna round: R97, puzzle: Brourd's mod of Exclusion 4) | 18.2 | 14.2 |  |  |  | 
UUUUAGUAAGGAUAUGAUUAGAUCUACUUCGGUAGAUCUAAUCAGAAGGUACAUGAGGAUCACCCAUGUAGAUU [Mod of Brourd 2 - Jieux - Exclusion 4] (Eterna round: R97, puzzle: Exclusion 4) | 24.1 | 18.8 |  |  |  | 
UUUAAUUUUUUUUUUUUACAAGCUUUUUGCUCGUCUUAUACAUGAGGAUCACCCAUGUAAAUGGGAAAUGAAUUAUC [JMF 95] (puzzle: Sensor v3, turn-off variant 2) |  |  | 322 | 447 | 188 | 
UUAUUAUAUGUAGGAUAUGCAUAUUAUUAUUAUGCAGAAGGACAUGAGGAUCACCCAUGUAUAUUGUUGUUAUGUAUUAUAUAU [Title] (Eterna round: R96, puzzle: Exclusion NG 1) | 40.4 | 31.3 |  |  |  | 24.1
UGAUCUAGCGGAGGAUAUACAUGAGGAUCACCCAUGUAGACUCCAUGACCGUAGUCGUGGAGUGUGUAGAAGGCCGCUAGAUCU [JL ENG2 3.73] (Eterna round: R96, puzzle: Exclusion NG 2) | 15.2 | 12 |  |  |  | 9.33
AAAGAACUAGGAUAUACAUGAGGAUCACCCAUGUGCAGCUUAACGGCUCACACCUUAUGUAGAAGGAGUGACCG [Riorenar] (puzzle: Exclusion 3) |  |  |  | 16 |  | 
UUUAUAAUUUCAAUCUUCGCUGGCAAACUUACGCCAGCCACAUGAGGAUCACCCAUGUUUUUUGUUCGUUUUACUCU [Tetevea] (puzzle: Sensor v3, turn-off variant 2) |  |  | 18 | 64 | 22.5 | 
UUUUACAUGCUGAGAUCCUACAUGAGGAUCACCCAUGUGGUCCGGUGACUUUUGUCACCGGACUUAGCUCGUCUUGU [salish99_S_TOV1_R5_100] (Eterna round: R97, puzzle: Sensor, turn-off variant 1) | 191 | 288 |  |  |  | 
ACUAGAUGAGGAUAUGCAUAUUUUCGUGUUCUUCUAGGUUAACAUGAGGAUCACCCAUGUAGAAGGCGUCUGGA [Exclusion 2 - 21] (puzzle: Exclusion 2) |  |  |  | 20 |  | 
AUGGGUCCUUUCGGAGCGACAUGAGGAUCACCCAUGUGUGUUGAGGAUAUCCACUGCUAAGGACGGGAGAAGGCAGUGUACUGU [Ex NG3 #84] (Eterna round: R96, puzzle: Exclusion NG 3) | 36.2 | 49.4 |  |  |  | 26.7
GCAGGAUAAGUCAGGAUAUACCUAUGGAUACAUAGGUAGAAGGGACAUGAGGAUCACCCAUGUGCCUCACCUGC [Fiskers BMX 4 - 57] (puzzle: Brourd's mod of Exclusion 4) |  |  | 48.7 | 16.6 | 16.1 | 
UUAAUGUGAGGAUAUGGUAAAGAUAAGAUGAUGAAAGAACUCCAGAAGGCACAUGAGGAUCACCCAUGUAGAUG [JL-ex4-2.14 Jieux mod] (puzzle: Exclusion 4) |  |  |  | 35.6 |  | 
CUGAGGUAAGGAUAUAGGAGAGAAGAUAAGGUAUGAGAGUUCUAGAAGGUACAUGAGGAUCACCCAUGUUAGGG [JR_Exclu4_Sub087] (puzzle: Exclusion 4) |  |  |  | 252 |  | 
AAACCUGCCCAUGACCGCAAGCUUUUUACUUGUCUUACCACAUGAGGAUCACCCAUGUGACAUGGGCUCCUUAUAAA [Ceedbe] (puzzle: Sensor v3, turn-off variant 2) |  |  | 12.8 | 4.81 | 11.2 | 
UGUCAGAUGGUAGGAUAUCCAUAUCGCGUGUCCCUUUCCUAACAUGAGGAUCACCCAUGUCGGUGGGAGAAGGGCCGUAUGGUG [salish99_ExNG02_R04_035] (Eterna round: R96, puzzle: Exclusion NG 2) |  |  |  |  |  | 9.49
AGCAGACGAGGAUAUAGAUUUGUUGACAUGAGGAUCACCCAUGUGAUCGAUCUAUCAUAUUUAGAAGGUGUCUGCU [JR_Ex5_Sub041] (Eterna round: R97, puzzle: Exclusion 5) | 18.6 | 14.3 |  |  |  | 
GAGUGCCGAGGAUAUACAAAUAUCCGCUAAUUAAUGCGAAAACAUGAGGAUCACCCAUGUAGAAGGCUGCACUC [AK-MS2ROC-r4-exclusion2-3] (Eterna round: R97, puzzle: Exclusion 2) | 13.9 | 9.44 |  |  |  | 

Sequence | apparent KD of MS2 coat protein (input ligand: FMN 200 uM) [nM] | apparent KD of MS2 coat protein (input ligand: none) [nM] | apparent KD of MS2 coat protein [1] [nM] | apparent KD of MS2 coat protein [2] [nM] | apparent KD of MS2 coat protein [3] [nM] | apparent KD of MS2 coat protein [4] [nM]
UGAUCAAAUGUCAGGAUAUGCUAUUAGAAAUAAUAGCAGAAGGGACAUGAGGAUCACCCAUGUCUUGUCGAUUU [Magic-01] (puzzle: Brourd's mod of Exclusion 4) |  |  | 93.5 | 19.2 | 20.1 | 
CGCAACGCAAGAGGAUAUGUUGGACAUGAGGAUCACCCAUGUAAAAUUGGCGAAACGCAUAUCCAGUAGAAGGCUUCCGAGCAA [Eternabot solution 15] (Eterna round: R96, puzzle: Exclusion NG 2) | 34.6 | 24.1 |  |  |  | 15.9
AUAAUGUCAGGAUAUCAGUCGUACAGCGAUAGCUGUACGACUGAGAAGGGACAUGAGGAUCACCCAUGUGGUUA [E4/7-A4] (Eterna round: R97, puzzle: Exclusion 4) | 169 | 1910 |  |  |  | 
CAGUACUGAGGAUAUACAUGAGGAUCACCCAUGUUAGAGAUACUAGUGAGGUCGAUUAGUAGAAGGCAGUACUG [Mat X3R4 m24] (Eterna round: R97, puzzle: Exclusion 3) | 557 | 44.9 |  |  |  | 
UUAAAUCAUGUAGGAUAUGCGUGGCGAAGCUAUGCAGAAGGACAUGAGGAUCACCCAUGUUCUUCCGUCUGCGUACAGACGGAA [Mat - Exclusion NG 1 - Mod of JL - D38] (Eterna round: R96, puzzle: Exclusion NG 1) | 284 | 40.8 |  |  |  | 33.7
AAAAGCUUUUUAAAAAAAAACAUGAGGAUCACCCAUGUUAAAAAAUAUAAGGUGAUAAAAAAUUGUCAAAAAAAAAA [Jieuxbot 008 - Jieux - Sensor v2, turn-off variant] (Eterna round: R96, puzzle: Sensor v2, turn-off variant) | 129 | 108 |  |  |  | 148
AAUUAGCAAGCGAGAUCCCACAUGAGGAUCACCCAUGUGCUCGUCUUAUAAAAGACUGUGACGAAAGUCACGGUCAC [Mat - Sensor, turn-off var - Eli Mod - D26] (Eterna round: R97, puzzle: Sensor, turn-off variant 1) | 14 | 15.9 |  |  |  | 
GACUUCUGAGGAUAUACAUAGAUUUACAUGAGGAUCACCCAUGUUCCUCUAUGUAUAAAUGUAGAAGGCAGAAGAA [Mat - Exclusion 5 - JL Mod - D64] (Eterna round: R97, puzzle: Exclusion 5) | 66.8 | 15.5 |  |  |  | 
UUGUUCCAUUAUGAGAUCCACAUGAGGAUCACCCAUGUAGGAGUAACAAGCUUUGCUCGAUCUAUUUCAUGCUUCUG [Eternabot (L1) Solution 40] (Eterna round: R97, puzzle: Sensor, turn-off variant 1) | 65.8 | 80.6 |  |  |  | 
CAGAGCAGACGGAGAUCCAACAUGAGGAUCACCCAUGUCUCAAAAGCUUUUUGCUUGUCUUAUCCUCCUCUGUUCAC [Esquitian 2] (Eterna round: R97, puzzle: Sensor, turn-off variant 1) | 18.3 | 17.4 |  |  |  | 
GGUUGGCGAGGAUAUACAUGAGGAUCACCCAUGUGAGAGAAAAAAGUGAGGAAGAAAAGUAGAAGGCGCUGACU [salish99_ex3_r3_047] (puzzle: Exclusion 3) |  |  | 221 | 53.2 | 50.1 | 
CUUAGCCUAAAAUCACGCAAGCUUUUUGCUUGUCUUAAGACAUGAGGAUCACCCAUGUCCGGGCUGAACUUAUGUAA [Laantiusan] (puzzle: Sensor v3, turn-off variant 2) |  |  | 22.7 | 30.9 | 26.4 | 
GCAGAAAGUGUAGGAUAUAUAAUAAAGCGGAAACGCAAGACAUGAGGAUCACCCAUGUGUCCGGAAUAGAAGGGCAAAAGCUGC [EXNG2 V2 b] (Eterna round: R96, puzzle: Exclusion NG 2) | 29.1 | 29.4 |  |  |  | 19.9
UUAUAUAAUGUGAGGAUAUGCUGGUCCUUAGAUCAGCAGAAGGCACAUGAGGAUCACCCAUGUAGUAAAUUUUA [Mat - Exclusion 4 - JL Mod - D11] (puzzle: Brourd's mod of Exclusion 4) |  |  | 25 | 15.3 | 16.8 | 
CCUUAUCCACAGGAUAUGCUCAUCUAAUGAUGAGCAGAAGGGUGGACAUGAGGAUCACCCAUGUUUAUCAAUGG [Omei Ex6 D3] (Eterna round: R97, puzzle: Exclusion 6) | 675 | 1040 |  |  |  | 
GUGGGUUACAUGAGGAUCACCCAUGUAGAGUGGGAAGAGAGAUAGGAUAUGAUGUGAGAAUUAUAUCAGAAGGAUCGAGACUCG [AK ExNG3-2.4] (Eterna round: R96, puzzle: Exclusion NG 3) | 268 | 214 |  |  |  | 136
